Experimental data as given in patent US20190298743A1, “TREATMENT OF PAIN” (Takeda Pharmaceutical Company Limited, priority 2016, published 2019).

Assays:
[1] = system: DRG neurons; assay: Perforated patch-clamp excitability (rheobase) of isolated DRG neurons; format: cell-based, mice; conditions: 0 min and 30 min after washing
Method: To assess the effects of proteases on excitability of nociceptors, DRG neurons were preincubated with trypsin, cathepsin S, elastase or vehicle (control), washed, and rheobase and action potential discharge at a current of twice rheobase were measured at 0 min or 30 min after washing.
DRG (T9-T13) from C57BL/6 mice were digested by incubation in collagenase (1 mg/ml, Worthington Biochemical, Lakewood, N.J.) and dispase (4 mg/ml, Roche Life Science, Indianapolis, Ind.) for 10 min at 37° C., and were dispersed by trituration with a fire-polished Pasteur pipette. Cells were plated onto coverslips coated with laminin (0.017 mg/ml) and poly-D-lysine (2 mg/ml) in 24-well plates. […]
Neuronal excitability was assessed by perforated patch-clamp recordings with amphotericin B (240 μg/ml) from small diameter neurons (<30 pF capacitance) in current clamp mode at room temperature. Only neurons with resting membrane potentials more negative than −40 mV were analyzed. Changes in excitability were quantified by measuring rheobase (minimum current to fire action potential) and numbers of action potentials discharged at twice rheobase. […]
Results are expressed as mean±SE. […]

[2] = Protease-evoked paw edema, hindpaw thickness; format: in vivo, mice; conditions: ipsilateral paw
Method: (§1) Immediately before experiments the mice were acclimatized to the experimental apparatus, room and investigator for 1-2 h on 2 successive days. Mechanical nociceptive responses were evaluated by paw withdrawal to stimulation of the plantar surface of the hind-paw with calibrated von Frey filaments. von Frey scores were measured in triplicate to establish a baseline for each animal on the day before experiments. Paw edema was estimated by measuring the thickness of the hindpaw using digital calipers before and after treatments. Mice were […] with 5% isoflurane for intraplantar injections. Dyngo4a (50 μM), PitStop2 (50 μM) or vehicle (0.2% DMSO in 0.9% NaCl) (all 10 μl) were injected into the left hindpaw. After 30 min, trypsin (10 nM), Cat-S (2.5 μM) or elastase (30 U) (all 10 μl) were injected into the same left hindpaw. von Frey scores (left and right paws) and paw thickness (left paw) were measured hourly for up to 4 h after protease injection. Investigators were blinded to the test agents.

[3] = system: PAR2; assay: BRET receptor trafficking, PAR2-RLuc8 with early endosomal marker Rab5a-venus in HEK293 cells; format: cell-based; conditions: trypsin 10 nM
Method: (§2) Bret studies of receptor trafficking were conducted to quantify PAR2 internalisation (RIT-venus) and trafficking to early endosomes (Rab5a-venus) upon stimulation with different agonists.
(§3) After achieving ˜50% confluency within 10 cm dishes HEK293 cells were transiently transfected with 1 μg PAR2-RLuc8 and 4 μg of either RIT-venus or Rab5a-venus using PEI as a transfection agent. 24 hours post transfection, cells were seeded into poly-D-lysine coated 96-well isoplates. […] When used endocytic inhibitors were diluted in 1×HBSS+1% dimethyl sulfoxide (DMSO). Following the replacement of culture media cells were allowed to equilibrate at 37° C. for 30 minutes before the addition of colenterazine H [5 μM]. After a further 5 minute incubation BRET was assessed using a LUMIstar Omega microplate reader (BMG LabTech, Offenburg, Germany), with luminescence being read at 535 nm and 475 nm. A 4 minute baseline was obtained before the addition of vehicle (1×HBSS+/−1% DMSO) or protease, measurements were then continued for a further 30 minutes. BRET ratios were calculated using LUMIstar MARS analysis software and then corrected to baseline and vehicle treatments in Microsoft Excel 2013.

[4] = system: PAR2; assay: BRET proximity of PAR2 to KRas (plasma membrane) and Rab5a (endosomes) in HEK cells; format: cell-based; conditions: HEK cells
Method: (§4) The contribution of endocytosis of protease-activated receptor-2 (PAR2) was evaluated for generation of signals in subcellular compartments that mediate protease-evoked sensitization of nociceptors. Bioluminescence resonance energy transfer (BRET) was used to assess the proximity of PAR2 to resident proteins of the plasma membrane (KRas) and endosomes (Rab5a) in HEK cells. […] Förster resonance energy transfer (FRET) biosensors targeted to the plasma membrane, cytosol or nucleus were used to examine the capacity of proteases to generate signals in subcellular compartments of HEK cells and rat dorsal root ganglia neurons. […] Dynamin inhibitor Dyngo4a, Clathrin inhibitor Pitstop2 and dominant negative β-arrestin inhibited trypsin-evoked endocytosis of PAR2, and prevented trypsin-evoked activation of cytosolic cAMP and PKC and nuclear ERK. […] To examine the link between PAR2 endocytosis, compartmentalized signaling and nociceptor sensitization, perforated patch clamp recordings were made from mouse dorsal root ganglia neurons. […] The effects of proteases on excitability were blocked by the PAR2 antagonist GB88. Thus, canonical and biased proteases sensitize nociceptors by distinct mechanisms. For canonical agonists, PAR2 endocytosis generates compartmentalized signals subcellular compartments that underlie sustained excitability of nociceptive neurons. […]

[5] = system: PAR2; assay: FRET biosensors for compartmentalised cAMP, PKC and ERK signals in HEK cells and rat dorsal root ganglia neurons; format: cell-based
Method: as §4

[6] = system: PAR2; assay: BRET receptor trafficking, PAR2-RLuc8 with plasma membrane marker RIT-venus in HEK293 cells; format: cell-based; conditions: trypsin 10 nM
Method: as §2, §3

[7] = Protease-evoked mechanical hyperalgesia, von Frey paw withdrawal; format: in vivo, mice; conditions: ipsilateral paw
Method: as §1

B1: cathepsin S: biased agonist protease of PAR2 (protein, UniProt P25774 115-331, looked up)
Cathepsin S: LPDSVDWREKGCVTEVKYQGSCGACWAFSAVGALEAQLKLKTGKLVSLSAQNLVDCSTEKYGNKGCNGGFMTTAFQYIIDNKGIDSDASYPYKAMDQKCQYDSKYRAATCSKYTELPYGREDVLKEAVANKGPVSVGVDARHPSFFLYRSGVYYEPSCTQNVNHGVLVVGYGDLNGKEYWLVKNSWGHNFGEEGYIRMARNKGNHCGIASFPSYPEI
Effect of protease on excitability (rheobase) of DRG neurons [1]: immediate increase in excitability
Edema after intraplantar injection of protease [2]: edema of the ipsilateral paw that was maximal after 4 h
Change in BRET between PAR2 and early endosomal marker upon agonist stimulation [3]: not observed
PAR2 endocytosis induced by agonist [4]: did not induce PAR2 endocytosis
Signals generated by protease in subcellular compartments [5]: only activated cAMP and PKC at the plasma membrane and ERK in the cytosol
Change in BRET between PAR2 and plasma membrane marker upon agonist stimulation [6]: not observed
Mechanical hyperalgesia after intraplantar injection of protease [7]: caused mechanical hyperalgesia of the ipsilateral paw that was sustained for at least 4 h
